For data set [1], the target named is C-terminal (201-243) cytoplasmic domain of the rat FcεRIβ, Gal 4 DNA binding domain fusion protein (pAS2-1-βC) (rat). As to the kind of experiment: yeast two-hybrid, liquid β-galactosidase assay, strain Y187.
Data set [2] addresses rat FcεRI (α, β and γ subunits) on CHO-B12 cells (UniProt P12371).

In data set [1], “full length Lyn A, Gal 4-activation domain-kinase fusion protein (from UniProt P04386 768-881) (enzyme)” came in with a LacZ reporter (β-galactosidase) activity, fold over the negative control pACT-27-66-OOF of 3 fold; a strength of the interaction by β-galactosidase activity, relative to p53 and SV40 of 1 per cent. The matching figures for “unique domain of Lyn B (amino acids 1-45), Gal 4-activation domain fusion protein (from UniProt Q07014 1-66)”: 3 fold and 1 per cent. In the case of “full length, catalytically inactive Lyn B kinase (Lys279 to Arg), rat, expressed in CHO-B12 cells”, the “antigen-induced phosphorylation of receptor tyrosines” value in data set [2] is reported as 20-75% less antigen-induced phosphorylation of receptor tyrosines than cells transfected with the vector alone. In data set [1], “unique domain of Lyn A (amino acids 1-66), Gal 4-activation domain fusion protein (from UniProt Q07014 1-66)” registered a LacZ reporter (β-galactosidase) activity, fold over the negative control pACT-27-66-OOF of 3 fold; a strength of the interaction by β-galactosidase activity, relative to p53 and SV40 of 1 per cent. The matching figures for “full length Lyn B, Gal 4-activation domain-kinase fusion protein (from UniProt P04386 768-881) (enzyme)”: 3 fold and 1 per cent.

For the origin of these results see US6353097.
